Laboratory results taken from US20040180417A1, “Secretase/sheddase with asp-ase activity on the beta-site app-cleaving enzyme (bace, asp2, memepsin2)” (priority 2000, published 2004).

Experiments:
[proBACES]FG/V5 = In vitro PC-mediated processing of proBACES (Western blot); format: biochemical, mouse; conditions: equivalent hydrolytic activities of PCs, 1-4 hours incubation
[1] = test system: proBACE processing by PC-like enzyme; experiment: proBACE processing in HK293 cells co-expressing [BACEF]FG/V5 and PC-inhibitors (pulse-chase, immunoprecipitation, SDS-PAGE); format: cell-based, human; conditions: co-expression; 20 min [35S]Met pulse, 90 min chase; FG immunoprecipitation
Procedure: FIG. 1: HK293 cells were transiently co-transfected with either ([BACEF]FG/V5+BDNF) [control, CTL] (A,C) or ([BACEF]FG/V5+α1-PDX) (B,D) cDNAs. Two days post-transfections the cells were pulse-labeled in the absence or presence of […] BFA for 15 min with [^35S]Met and then chased for 1 or 2h. Cell lysates were immunoprecipitated with either the FG or V5 mAbs and analysed by SDS-PAGE on 8% tricine gels. The migration position of the 53 kDa molecular mass standard and those of proBACE (pBACE) and BACE are emphasized.
FIG. 2: [A] HK293 cells were transiently co-transfected with cDNAs coding for either ([BACEF]FG/V5+BDNF) [control, CTL], ([BACEF-R45A]FG/V5+BDNF) or ([BACEF-R42A]FG/V5+BDNF) or ([BACEF]FG/V5+either α1-PDX, the prosegments of furin, PC5, PC7, SKI-1, furin-mutated (α2M-F) or wild type (α2M) α2-macroglobulin. The cells were pulse-labeled for 20 min with [^35S]Met and then chased for 90 min. Cell lysates were immunoprecipitated with the FG mAb and analysed by SDS-PAGE on 8% tricine gels. [B] HK293 cells were transiently co-transfected with cDNAs coding for either ([BACEF]FG/V5+BDNF) [CTL], ([BACEF]FG/V5+furin) or ([BACEF]FG/V5+α1-PDX). The cells were then pulse-labeled for 2h with Na2[^35SO4]. Cell lysates were immunoprecipitated with the FG or V5 mAbs and analysed by SDS-PAGE on 8% tricine gels. […]

Row | Molecule | ability to process proBACE into BACE ([proBACES]FG/V5) | quantity of the 72 kDa proBACE (pBACEG, Golgi form) [1]
1 | PC7 (protein) SIHFNDPKYPQQWHLNNRRSPGRDINVTGVWERNVTGRGVTVVVVDDGVEHTVQDIAPNYSPEGSYDLNSNDPDPMPHPDEENGNHHGTRCAGEIAAVPNNSFCAVGVAYGSRIAGIRVLDGPLTDSMEAVAFNKHYQINDIYSCSWGPDDDGKTVDGPHQLGKAALQHGVMAGRQGFGSIFVVASGNGGQHNDNCNYDGYANSIYTVTIGAVDEEGRMPFYAEECASMLAVTFSGGDKMLRSIVTTDWDLQKGTGCTEGHTGTSAAAPLAAGMIALMLQVRPCLTWRDVQHIIVFTATQYEDHRADWLTNEAGFSHSHQHGFGLLNAWRLVNAAKIWTSVPYLASYVSPMLKENKAVPRSPHSLEVLWNVSRTDLEMSGLKTLEHVAVTVSITHPRRGSLELKLFCPSGMMSLIGAPRSMDSDPNGFNDWTFSTVRCWGERARGVYRLVIRDVGDEPLQVGILQQWQLTLYGSTWSPVDIKDRQSLLESAMSGKYLHDDFTLPCPPGLKIPEEDGYSITPNTLKT | barely, if at all, able | –
2 | α2M: wild type α2-macroglobulin (protein, UniProt P01023 24-1474, looked up) Alpha-2-macroglobulin: SVSGKPQYMVLVPSLLHTETTEKGCVLLSYLNETVTVSASLESVRGNRSLFTDLEAENDVLHCVAFAVPKSSSNEEVMFLTVQVKGPTQEFKKRTTVMVKNEDSLVFVQTDKSIYKPGQTVKFRVVSMDENFHPLNELIPLVYIQDPKGNRIAQWQSFQLEGGLKQFSFPLSSEPFQGSYKVVVQKKSGGRTEHPFTVEEFVLPKFEVQVTVPKIITILEEEMNVSVCGLYTYGKPVPGHVTVSICRKYSDASDCHGEDSQAFCEKFSGQLNSHGCFYQQVKTKVFQLKRKEYEMKLHTEAQIQEEGTVVELTGRQSSEITRTITKLSFVKVDSHFRQGIPFFGQVRLVDGKGVPIPNKVIFIRGNEANYYSNATTDEHGLVQFSINTTNVMGTSLTVRVNYKDRSPCYGYQWVSEEHEEAHHTAYLVFSPSKSFVHLEPMSHELPCGHTQTVQAHYILNGGTLLGLKKLSFYYLIMAKGGIVRTGTHGLLVKQEDMKGHFSISIPVKSDIAPVARLLIYAVLPTGDVIGDSAKYDVENCLANKVDLSFSPSQSLPASHAHLRVTAAPQSVCALRAVDQSVLLMKPDAELSASSVYNLLPEKDLTGFPGPLNDQDNEDCINRHNVYINGITYTPVSSTNEKDMYSFLEDMGLKAFTNSKIRKPKMCPQLQQYEMHGPEGLRVGFYESDVMGRGHARLVHVEEPHTETVRKYFPETWIWDLVVVNSAGVAEVGVTVPDTITEWKAGAFCLSEDAGLGISSTASLRAFQPFFVELTMPYSVIRGEAFTLKATVLNYLPKCIRVSVQLEASPAFLAVPVEKEQAPHCICANGRQTVSWAVTPKSLGNVNFTVSAEALESQELCGTEVPSVPEHGRKDTVIKPLLVEPEGLEKETTFNSLLCPSGGEVSEELSLKLPPNVVEESARASVSVLGDILGSAMQNTQNLLQMPYGCGEQNMVLFAPNIYVLDYLNETQQLTPEIKSKAIGYLNTGYQRQLNYKHYDGSYSTFGERYGRNQGNTWLTAFVLKTFAQARAYIFIDEAHITQALIWLSQRQKDNGCFRSSGSLLNNAIKGGVEDEVTLSAYITIALLEIPLTVTHPVVRNALFCLESAWKTAQEGDHGSHVYTKALLAYAFALAGNQDKRKEVLKSLNEEAVKKDNSVHWERPQKPKAPVGHFYEPQAPSAEVEMTSYVLLAYLTAQPAPTSEDLTSATNIVKWITKQQNAQGGFSSTQDTVVALHALSKYGAATFTRTGKAAQVTIQSSGTFSSKFQVDNNNRLLLQQVSLPELPGEYSMKVTGEGCVYLQTSLKYNILPEKEEFPFALGVQTLPQTCDEPKAHTSFQISLSVSYTGSRSASNMAIVDVKMVSGFIPLKPTVKMLERSNHVSRTEVSSNHVLIYLDKVSNQTLSLFFTVLQDVPVRDLKPAIVKVYDYYETDEFAIAEYNAPCSKDLGNA | – | barely detectable
